Data as given in paper PMC8881611, “A mechanism of origin licensing control through autoinhibition of S. cerevisiae ORC·DNA·Cdc6” (Nature Communications, 2022).

Tests used:
Test in all cases: pull-down; amylose pulldown, ORC with MBP-tagged Orc4 as bait; 0.5 uM ScORC, 0.5 uM 84 bp ARS1 dsDNA, 1 uM ScCdc6, 10 uM ScMcm7 (titrations 1.5, 5, 10 uM), 2 mM ATPγS; 25 mM HEPES pH 7.5, 300 mM potassium acetate, 10 mM magnesium acetate, 1 mM DTT; on ice; maltose elution, Coomassie-stained SDS-PAGE
Conditions in all cases: both partners purified
[1] = target: T1, ScORC·DNA·Cdc6 with MBP-tagged ORC (full-length Orc6), ORC dephosphorylated with λ phosphatase (S. cerevisiae, UniProt P54784 1-914; P32833 1-620; P54790 1-616; P54791 1-529; P50874 1-479; P38826 …, ORC treated with λ phosphatase | ORC treated with λ phosphatase)
T1 construct: Orc1, S. cerevisiae, wild type; Orc2, S. cerevisiae, wild type; Orc3, S. cerevisiae, wild type; Orc4, S. cerevisiae, wild type; Orc5, S. cerevisiae, wild type; Orc6, S. cerevisiae, wild type; Cdc6, S. cerevisiae, wild type; ORC (10 uM) dephosphorylated with 16.7 units/uL λ phosphatase, 10 min, 30 °C, before assembly with DNA, Cdc6 and ATPγS; also called dephosphorylated MBP-ORC·DNA·Cdc6; source: …

[2] = target: T2, ScORC·DNA·Cdc6 with MBP-tagged ORC holding Orc6 ΔCBN (Orc6Δ1-120), ORC untreated (S. cerevisiae, UniProt P54784 1-914; P32833 1-620; P54790 1-616; P54791 1-529; P50874 1-479; P38826 …)
T2 construct: Orc1, S. cerevisiae, wild type; Orc2, S. cerevisiae, wild type; Orc3, S. cerevisiae, wild type; Orc4, S. cerevisiae, wild type; Orc5, S. cerevisiae, wild type; Orc6, S. cerevisiae, truncation Orc6Δ1-120 (lacks the N-terminal cyclin box fold); Cdc6, S. cerevisiae, wild type; The unstructured linker region of Orc6ΔCBN is prone to proteolytic cleavage during expression and purification; also called …

[3] = target: T3, ScORC·DNA·Cdc6 with MBP-tagged ORC holding Orc6 ΔCBN (Orc6Δ1-120), ORC dephosphorylated with λ phosphatase (S. cerevisiae, UniProt P54784 1-914; P32833 1-620; P54790 1-616; P54791 1-529; P50874 1-479; P38826 …, ORC treated with λ phosphatase | ORC treated with λ phosphatase)
T3 construct: Orc1, S. cerevisiae, wild type; Orc2, S. cerevisiae, wild type; Orc3, S. cerevisiae, wild type; Orc4, S. cerevisiae, wild type; Orc5, S. cerevisiae, wild type; Orc6, S. cerevisiae, truncation Orc6Δ1-120 (lacks the N-terminal cyclin box fold); Cdc6, S. cerevisiae, wild type; ORC dephosphorylated before assembly with DNA, Cdc6 and ATPγS; also called Orc6 ΔCBN, λ phosphatase; Orc6^ΔN120; source: …

[4] = target: T4, ScORC·DNA·Cdc6 with MBP-tagged ORC holding Orc6 ΔCBN (Orc6Δ1-120), ORC phosphorylated by CDK (S. cerevisiae, UniProt P54784 1-914; P32833 1-620; P54790 1-616; P54791 1-529; P50874 1-479; P38826 …, ORC treated with CDK; phosphorylated sites not printed | ORC treated with CDK; phosphorylated sites not given)
T4 construct: Orc1, S. cerevisiae, wild type; Orc2, S. cerevisiae, wild type; Orc3, S. cerevisiae, wild type; Orc4, S. cerevisiae, wild type; Orc5, S. cerevisiae, wild type; Orc6, S. cerevisiae, truncation Orc6Δ1-120 (lacks the N-terminal cyclin box fold); Cdc6, S. cerevisiae, wild type; ORC phosphorylated by CDK before assembly with DNA, Cdc6 and ATPγS; also called Orc6 ΔCBN, CDK; Orc6^ΔN120; source: MBP-ORC: …

[5] = target: T5, ScORC·DNA·Cdc6 with MBP-tagged ORC holding Orc6 ΔCBN/Δlinker (Orc6Δ1-269), ORC dephosphorylated with λ … (S. cerevisiae, UniProt P54784 1-914; P32833 1-620; P54790 1-616; P54791 1-529; P50874 1-479; P38826 …, ORC treated with λ phosphatase)
T5 construct: Orc1, S. cerevisiae, wild type; Orc2, S. cerevisiae, wild type; Orc3, S. cerevisiae, wild type; Orc4, S. cerevisiae, wild type; Orc5, S. cerevisiae, wild type; Orc6, S. cerevisiae, truncation Orc6Δ1-269 (lacks the N-terminal cyclin box fold and the flexible linker); Cdc6, S. cerevisiae, wild type; ORC dephosphorylated before assembly with DNA, Cdc6 and ATPγS; also called Orc6 ΔCBN/Δlinker, λ …

binding result [1]: binds
binding result [2]: binds
binding result [3]: binds
binding result [4]: binds
binding result [5]: binds
B1: S. cerevisiae Mcm7 (ScMcm7) (natural protein, UniProt P38132 1-845, looked up)
chain: MSAALPSIQLPVDYNNLFNEITDFLVTFKQDTLSSDATRNENEDENLDAENIEQHLLEKGPKYMAMLQKVANRELNSVIIDLDDILQYQNEKFLQGTQADDLVSAIQQNANHFTELFCRAIDNNMPLPTKEIDYKDDVLDVILNQRRLRNERMLSDRTNEIRSENLMDTTMDPPSSMNDALREVVEDETELFPPNLTRRYFLYFKPLSQNCARRYRKKAISSKPLSVRQIKGDFLGQLITVRGIITRVSDVKPAVEVIAYTCDQCGYEVFQEVNSRTFTPLSECTSEECSQNQTKGQLFMSTRASKFSAFQECKIQELSQQVPVGHIPRSLNIHVNGTLVRSLSPGDIVDVTGIFLPAPYTGFKALKAGLLTETYLEAQFVRQHKKKFASFSLTSDVEERVMELITSGDVYNRLAKSIAPEIYGNLDVKKALLLLLVGGVDKRVGDGMKIRGDINVCLMGDPGVAKSQLLKAICKISPRGVYTTGKGSSGVGLTAAVMKDPVTDEMILEGGALVLADNGICCIDEFDKMDESDRTAIHEVMEQQTISISKAGINTTLNARTSILAAANPLYGRYNPRLSPLDNINLPAALLSRFDILFLMLDIPSRDDDEKLAEHVTYVHMHNKQPDLDFTPVEPSKMREYIAYAKTKRPVMSEAVNDYVVQAYIRLRQDSKREMDSKFSFGQATPRTLLGIIRLSQALAKLRLADMVDIDDVEEALRLVRVSKESLYQETNKSKEDESPTTKIFTIIKKMLQETGKNTLSYENIVKTVRLRGFTMLQLSNCIQEYSYLNVWHLINEGNTLKFVDDGTMDTDQEDSLVSTPKLAPQTTASANVSAQDSDIDLQDA
notes: Mcm7, S. cerevisiae; migrates as a doublet on SDS-PAGE; source: E. coli BL21 RIL, purified (HisTrap, amylose, TEV cleavage, HisTrap, gel filtration); not shown: His6, N-terminal, cleaved; MBP, N-terminal, cleaved
